Laboratory results reported in publication PMC12177071, “Divergence in a eukaryotic transcription factor’s co-TF dependence involves multiple intrinsically disordered regions”.

T1: ScPho4 DBD (Saccharomyces cerevisiae, UniProt P07270 236-312)
T1 sequence: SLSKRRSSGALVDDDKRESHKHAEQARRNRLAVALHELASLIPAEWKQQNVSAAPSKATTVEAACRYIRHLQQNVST

T2: CgPho4 DBD (Candida glabrata, UniProt Q6FVW0 452-533)
T2 sequence: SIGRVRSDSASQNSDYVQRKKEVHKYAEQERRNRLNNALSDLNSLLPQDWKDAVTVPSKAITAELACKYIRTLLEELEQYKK

B1: 17-bp consensus E-box, EMSA probe (dsDNA)
DNA 1: CTAGTCCCACGTGTGAG
DNA 2: CTCACACGTGGGACTAG
B2: 17-bp consensus E-box, BLI probe (dsDNA)
DNA 1: CTAGTCCCACGTGTGAG
DNA 2: CTCACACGTGGGACTAG

Tests used:
ScPho4 DBD [1] = target: T1, ScPho4 DBD; assay: EMSA; 5 mM MgCl2, 1 mM EDTA; 4 C; BLI: 1x PBS pH 7.4, 0.01% BSA, 0.002% Tween-20, 0.005% sodium azide, 30 C; EMSA: 20 mM Tris-HCl pH 8, 150 mM KCl, 10% glycerol, 5 mM MgCl2, 1 mM EDTA, 1 mM DTT, 4 C; details: protein: recombinant; tags: C-terminal 6xHis; chain copies: 2; label: IR700; blunt
CgPho4 DBD [2] = target: T2, CgPho4 DBD; assay: as above; details: protein: recombinant; tags: C-terminal 6xHis; chain copies: 2; label: IR700; blunt
ScPho4 DBD [3] = target: T1, ScPho4 DBD; assay: BLI; mean of 5 replicates; 30 C; BLI: 1x PBS pH 7.4, 0.01% BSA, 0.002% Tween-20, 0.005% sodium azide, 30 C; EMSA: 20 mM Tris-HCl pH 8, 150 mM KCl, 10% glycerol, 5 mM MgCl2, 1 mM EDTA, 1 mM DTT, 4 C; details: protein: recombinant; tags: C-terminal 6xHis; chain copies: 2; blunt
CgPho4 DBD [4] = target: T2, CgPho4 DBD; assay: as above; details: protein: recombinant; tags: C-terminal 6xHis; chain copies: 2; blunt

Row | Binder | Kd (ScPho4 DBD [1]) [nM] | Kd (CgPho4 DBD [2]) [nM] | Kd (ScPho4 DBD [3]) [nM] | Kd (CgPho4 DBD [4]) [nM]
1 | B1 | 5.5 | 1.9 | – | –
2 | B2 | – | – | 5.2 | 1.2
